Source: patent publication US20040106557A1
Ends that are not written are not given here.

B1: chemically synthesized peptide C-4 with GA flanks (…) (peptide)
peptide: GACVAYCIEHHCWTCGA
modifications: disulfide (positions not given here); not fully specified (bridges); also: cyclic, disulphide bonds between cysteines, pairing of the four Cys not given here

Experiments:
[1] = biological target: PSA-alpha-2-macroglobulin complex (PSA-A2M), purified (human) (UniProt P07288); assay: cell-based or functional assay
[2] = biological target: Prostate specific antigen (PSA), purified from human seminal fluid (human) (UniProt P07288); assay: inhibition IFMA: 200 µl fraction preincubated with PSA captured by MAb 5E4, then GST-C4 (167 nM); competitor GST-C-4

Row | Binder | enzyme activity of A2M-complexed PSA (S-2586, OD 405 nm), 50-fold molar excess of peptide [1] [fold] | reduction of the binding of GST-peptide to PSA (%) [2] [%]
1 | B1 | 2 | –
2 | CVAYCIEHHCWTC (peptide, part only; not given: vector flanking residues, part only) [peptide cleaved from GST-C-4 by thrombin (about 3 kD, estimated 31 residues)] | – | 30
